Measurements taken from patent US20210102933.

Key:
[1] = test system: T1, FRET peptide substrate EDANS-A-L-E-V-L-F-Q/G-P-K-DABCYL
T1 sequence: ALEVLFXPK

| Substance | fluorescent signal upon cleavage of the FRET peptide substrate in microwells (18 hours, 100 µg/mL peptide) [1] | fluorescent signal in trypsin cleavage assay in microwells (0.5 µg/ml trypsin, 10 µg/ml FTC-casein, 1 and 18 hours) (FTC-casein) | fluorescent signal in trypsin cleavage assay in microwells (0.05, 0.5 and 5 µg/ml trypsin, 10 µg/ml FTC-casein, 1 hour) (FTC-casein) |
| --- | --- | --- | --- |
| human rhinovirus 3C protease | The secreted enzyme successfully cleaved the substrate, resulting in a fluorescent signal |  |  |
| trypsin |  | the intensity of the observed fluorescent signal was dependent on the time of incubation | the intensity of the observed fluorescent signal was dependent on the concentration of trypsin in the microwells |
